By EC50 is commonly meant the midpoint of the concentration-response curve.

The values that follow come from patent US20220396635A1 (UNIVERSIT T STUTTGART, published 2022).

Experiment [1] deals with T1, CEA (UniProt P06731 35-685).
T1 construct: whole, on cells
T1 sequence (looked up): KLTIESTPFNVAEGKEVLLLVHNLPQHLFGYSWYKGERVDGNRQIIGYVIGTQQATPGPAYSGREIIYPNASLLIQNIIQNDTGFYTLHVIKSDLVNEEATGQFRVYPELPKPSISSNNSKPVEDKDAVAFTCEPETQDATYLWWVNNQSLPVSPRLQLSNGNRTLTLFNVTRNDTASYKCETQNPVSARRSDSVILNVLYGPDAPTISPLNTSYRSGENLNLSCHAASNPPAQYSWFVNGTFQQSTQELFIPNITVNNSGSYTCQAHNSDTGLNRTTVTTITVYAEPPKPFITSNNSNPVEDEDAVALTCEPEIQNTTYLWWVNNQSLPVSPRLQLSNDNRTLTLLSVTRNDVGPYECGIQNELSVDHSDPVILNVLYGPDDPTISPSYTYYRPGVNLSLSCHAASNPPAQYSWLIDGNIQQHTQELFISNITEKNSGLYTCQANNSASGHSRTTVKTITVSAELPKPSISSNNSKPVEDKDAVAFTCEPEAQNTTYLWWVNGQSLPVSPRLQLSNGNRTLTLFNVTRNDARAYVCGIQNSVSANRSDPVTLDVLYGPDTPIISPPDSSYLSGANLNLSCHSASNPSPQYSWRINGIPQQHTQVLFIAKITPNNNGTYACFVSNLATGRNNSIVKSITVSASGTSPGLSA
In words: flow cytometry, serial dilution on LIM1215 cells (CEA-expressing), PE anti-human Fc detection. As to the method: (§1) Binding of trivalent, bispecific fusion proteins to CEA-expressing (LIM1215) and CD3-expressing (Jurkat) cell lines was analyzed by flow cytometry. 2×10⁵ cells/well were incubated with a serial dilution of trivalent, bispecific antibodies for 1 h at 4° C. followed by detection using a PE-conjugated anti-human Fc antibody (Jackson ImmunoResearch Laboratories Inc). […] Regarding the CEA-expressing cell line LIM1215, the trivalent, bispecific antibodies bound with EC₅₀ values in the nanomolar range (FIG. 16A) (Table 9).
On the technique in general: In flow cytometry, cells or beads pass a laser one at a time.

The next experiment has as its target T2, CD3 (UniProt P07766 23-207).
T2 construct: whole, on cells; on cells it stands in the TCR/CD3 complex; also called CD3 on Jurkat cells
The experiment can be described thus: flow cytometry, serial dilution on Jurkat cells (CD3-expressing), PE anti-human Fc detection. The procedure: as §1

For experiment [2], the target named is T1, CEA. The experiment can be described thus: cell-based or functional assay.
For experiment [3], the target named is T1, CEA. In words: cell-based or functional assay. The source holds these as a separate data set.

B1: scDb/scFv-Fc (1-2)+1, trivalent bispecific anti-CEAxanti-CD3 (bispecific antibody)
chain 1: QVKLQQSGAELVRSGTSVKLSCTASGFNIKDSYMHWLRQGPEQGLEWIGWIDPENGDTEYAPKFQGKATFTTDTSSNTAYLQLSSLTSEDTAVYYCNEGTPTGPYYFDYWGQGTTVTVSSGGGGSDIQMTQSPSSLSASVGDRVTITCRASQDIRNYLNWYQQKPGKAPKLLIYYTSRLHSGVPSRFSGSGSGTDFTFTISSLQPEDIATYYCQQGNTLPWTFGQGTKLEIKRGGGGSGGGGSGGGGSQVQLVQSGAEVKKPGSSVKVSCKASGGTFSGYTMNWVRQAPGQGLEWMGLINPYKGVSTYNGKFKDRVTITADKSTSTAYMELSSLRSEDTAVYYCARSGYYGDSDWYFDVWGQGTLVTVSSGGGGSDIELTQSPAIMSASPGEKVTITCSASSSVSYMHWFQQKPGTSPKLWIYSTSNLASGVPARFSGSGSGTSYSLTISRMEAEDAATYYCQQRSSYPLTFGAGTKLELKRAAADKTHTCPPCPAPPVAGPSVFLFPPKPKDTLMISRTPEVTCVVVDVSHEDPEVKFNWYVDGVEVHNAKTKPREEQYNSTYRVVSVLTVLHQDWLNGKEYKCKVSNKGLPSSIEKTISKAKGQPREPQVCTLPPSRDELTKNQVSLSCAVKGFYPSDIAVEWESNGQPENNYKTTPPVLDSDGSFFLVSKLTVDKSRWQQGNVFSCSVMHEALHNHYTQKSLSLSPGK
chain 2: QVKLQQSGAELVRSGTSVKLSCTASGFNIKDSYMHWLRQGPEQGLEWIGWIDPENGDTEYAPKFQGKATFTTDTSSNTAYLQLSSLTSEDTAVYYCNEGTPTGPYYFDYWGQGTTVTVSSGGGGSGGGGSGGGGSDIELTQSPAIMSASPGEKVTITCSASSSVSYMHWFQQKPGTSPKLWIYSTSNLASGVPARFSGSGSGTSYSLTISRMEAEDAATYYCQQRSSYPLTFGAGTKLELKRAAADKTHTCPPCPAPPVAGPSVFLFPPKPKDTLMISRTPEVTCVVVDVSHEDPEVKFNWYVDGVEVHNAKTKPREEQYNSTYRVVSVLTVLHQDWLNGKEYKCKVSNKGLPSSIEKTISKAKGQPREPQVYTLPPCRDELTKNQVSLWCLVKGFYPSDIAVEWESNGQPENNYKTTPPVLDSDGSFFLYSKLTVDKSRWQQGNVFSCSVMHEALHNHYTQKSLSLSPGK
notes: also called scDbCEAxhuU3-Fc(hole)Δab + scFvCEA-Fc(knob)Δab
On to B1, for which the values for the EC50 with CEA [1] and with CD3 were 1.6 nM and 7.7 nM, respectively. Also, the “EC50 of IL-2 release, PBMCs co-cultured with LIM1215 cells” value (“EC50 of IL-2 release, PBMCs co-cultured” for short) with CEA [2] is 1.4 nM. Moreover, in the experiment with CEA [3], the “EC50 of PBMC cytotoxicity on LIM1215 cells, E:T 10:1” value (from here on “EC50 of PBMC cytotoxicity”) amounted to 0.5 nM.

B2: scDb/scFv-Fc (2-1)+1, trivalent bispecific anti-CEAxanti-CD3 (bispecific antibody)
chain 1: QVQLVQSGAEVKKPGSSVKVSCKASGGTFSGYTMNWVRQAPGQGLEWMGLINPYKGVSTYNGKFKDRVTITADKSTSTAYMELSSLRSEDTAVYYCARSGYYGDSDWYFDVWGQGTLVTVSSGGGGSDIELTQSPAIMSASPGEKVTITCSASSSVSYMHWFQQKPGTSPKLWIYSTSNLASGVPARFSGSGSGTSYSLTISRMEAEDAATYYCQQRSSYPLTFGAGTKLELKRGGGGSGGGGSGGGGSQVKLQQSGAELVRSGTSVKLSCTASGFNIKDSYMHWLRQGPEQGLEWIGWIDPENGDTEYAPKFQGKATFTTDTSSNTAYLQLSSLTSEDTAVYYCNEGTPTGPYYFDYWGQGTTVTVSSGGGGSDIQMTQSPSSLSASVGDRVTITCRASQDIRNYLNWYQQKPGKAPKLLIYYTSRLHSGVPSRFSGSGSGTDFTFTISSLQPEDIATYYCQQGNTLPWTFGQGTKLEIKRAAADKTHTCPPCPAPPVAGPSVFLFPPKPKDTLMISRTPEVTCVVVDVSHEDPEVKFNWYVDGVEVHNAKTKPREEQYNSTYRVVSVLTVLHQDWLNGKEYKCKVSNKGLPSSIEKTISKAKGQPREPQVCTLPPSRDELTKNQVSLSCAVKGFYPSDIAVEWESNGQPENNYKTTPPVLDSDGSFFLVSKLTVDKSRWQQGNVFSCSVMHEALHNHYTQKSLSLSPGK
chain 2: QVKLQQSGAELVRSGTSVKLSCTASGFNIKDSYMHWLRQGPEQGLEWIGWIDPENGDTEYAPKFQGKATFTTDTSSNTAYLQLSSLTSEDTAVYYCNEGTPTGPYYFDYWGQGTTVTVSSGGGGSGGGGSGGGGSDIELTQSPAIMSASPGEKVTITCSASSSVSYMHWFQQKPGTSPKLWIYSTSNLASGVPARFSGSGSGTSYSLTISRMEAEDAATYYCQQRSSYPLTFGAGTKLELKRAAADKTHTCPPCPAPPVAGPSVFLFPPKPKDTLMISRTPEVTCVVVDVSHEDPEVKFNWYVDGVEVHNAKTKPREEQYNSTYRVVSVLTVLHQDWLNGKEYKCKVSNKGLPSSIEKTISKAKGQPREPQVYTLPPCRDELTKNQVSLWCLVKGFYPSDIAVEWESNGQPENNYKTTPPVLDSDGSFFLYSKLTVDKSRWQQGNVFSCSVMHEALHNHYTQKSLSLSPGK
notes: also called scDbhuU3xCEA-Fc(hole)Δab + scFvCEA-Fc(knob)Δab
For B2, the EC50 turned out to be 1.7 nM with CEA [1] and 7.9 nM in the experiment with CD3. Moreover, the “EC50 of IL-2 release, PBMCs co-cultured” value in the experiment with CEA [2] stood at 1.4 nM. The “EC50 of PBMC cytotoxicity” value with CEA [3] is 0.3 nM.

B3: scDb/Fab-Fc (1-2)+1, trivalent bispecific anti-CEAxanti-CD3 (bispecific antibody, human IgG1, kappa)
chain: QVKLQQSGAELVRSGTSVKLSCTASGFNIKDSYMHWLRQGPEQGLEWIGWIDPENGDTEYAPKFQGKATFTTDTSSNTAYLQLSSLTSEDTAVYYCNEGTPTGPYYFDYWGQGTTVTVSSGGGGSDIQMTQSPSSLSASVGDRVTITCRASQDIRNYLNWYQQKPGKAPKLLIYYTSRLHSGVPSRFSGSGSGTDFTFTISSLQPEDIATYYCQQGNTLPWTFGQGTKLEIKRGGGGSGGGGSGGGGSQVQLVQSGAEVKKPGSSVKVSCKASGGTFSGYTMNWVRQAPGQGLEWMGLINPYKGVSTYNGKFKDRVTITADKSTSTAYMELSSLRSEDTAVYYCARSGYYGDSDWYFDVWGQGTLVTVSSGGGGSDIELTQSPAIMSASPGEKVTITCSASSSVSYMHWFQQKPGTSPKLWIYSTSNLASGVPARFSGSGSGTSYSLTISRMEAEDAATYYCQQRSSYPLTFGAGTKLELKRAAADKTHTCPPCPAPPVAGPSVFLFPPKPKDTLMISRTPEVTCVVVDVSHEDPEVKFNWYVDGVEVHNAKTKPREEQYNSTYRVVSVLTVLHQDWLNGKEYKCKVSNKGLPSSIEKTISKAKGQPREPQVCTLPPSRDELTKNQVSLSCAVKGFYPSDIAVEWESNGQPENNYKTTPPVLDSDGSFFLVSKLTVDKSRWQQGNVFSCSVMHEALHNHYTQKSLSLSPGK
heavy: QVKLQQSGAELVRSGTSVKLSCTASGFNIKDSYMHWLRQGPEQGLEWIGWIDPENGDTEYAPKFQGKATFTTDTSSNTAYLQLSSLTSEDTAVYYCNEGTPTGPYYFDYWGQGTTVTVSSASTKGPSVFPLAPSSKSTSGGTAALGCLVKDYFPEPVTVSWNSGALTSGVHTFPAVLQSSGLYSLSSVVTVPSSSLGTQTYICNVNHKPSNTKVDKKVEPKSCDKTHTCPPCPAPPVAGPSVFLFPPKPKDTLMISRTPEVTCVVVDVSHEDPEVKFNWYVDGVEVHNAKTKPREEQYNSTYRVVSVLTVLHQDWLNGKEYKCKVSNKGLPSSIEKTISKAKGQPREPQVYTLPPCRDELTKNQVSLWCLVKGFYPSDIAVEWESNGQPENNYKTTPPVLDSDGSFFLYSKLTVDKSRWQQGNVFSCSVMHEALHNHYTQKSLSLSPGK
light: DIELTQSPAIMSASPGEKVTITCSASSSVSYMHWFQQKPGTSPKLWIYSTSNLASGVPARFSGSGSGTSYSLTISRMEAEDAATYYCQQRSSYPLTFGAGTKLELKRRTVAAPSVFIFPPSDEQLKSGTASVVCLLNNFYPREAKVQWKVDNALQSGNSQESVTEQDSKDSTYSLSSTLTLSKADYEKHKVYACEVTHQGLSSPVTKSFNRGEC
notes: also called scDbCEAxhuU3-Fc(hole)Δab + VHCEA-CH1-Fc(knob)Δab + VLCEA-CLκ
On to B3, for which the EC50 worked out at 2.5 nM with CEA [1] and 5.7 nM with CD3. Besides, the “EC50 of IL-2 release, PBMCs co-cultured” value in the experiment with CEA [2] is 0.5 nM. Besides, the “EC50 of PBMC cytotoxicity” value with CEA [3] amounted to 0.4 nM.
